# Results as given in PMC3876041, “Screening of Peptide Ligands for Pyrroloquinoline Quinone Glucose Dehydrogenase Using Antagonistic Template-Based Biopanning” (International Journal of Molecular Sciences, 2013).
# No end group written: not given here.
# What was measured:
# [1] = target: T1, DEE-His (His-tagged V453D-Q454E-K455E GDH-B) (Acinetobacter calcoaceticus, UniProt P13650, K455E/Q454E/V453D); test: SPR (BIAcore X) binding of immobilized synthesized peptides, DEE-His as analyte; conditions: peptide on CM5 chip (amine coupling), analyte 5 nM to 90 μM in 10 mM MOPS–NaOH pH 7.0, less than 20 RU at any analyte concentration = not binding, read-out: Kd against DEE-His
# T1 construct: 6-His (C); made in house
# T1 sequence (P13650 25-478 V453D/Q454E/K455E): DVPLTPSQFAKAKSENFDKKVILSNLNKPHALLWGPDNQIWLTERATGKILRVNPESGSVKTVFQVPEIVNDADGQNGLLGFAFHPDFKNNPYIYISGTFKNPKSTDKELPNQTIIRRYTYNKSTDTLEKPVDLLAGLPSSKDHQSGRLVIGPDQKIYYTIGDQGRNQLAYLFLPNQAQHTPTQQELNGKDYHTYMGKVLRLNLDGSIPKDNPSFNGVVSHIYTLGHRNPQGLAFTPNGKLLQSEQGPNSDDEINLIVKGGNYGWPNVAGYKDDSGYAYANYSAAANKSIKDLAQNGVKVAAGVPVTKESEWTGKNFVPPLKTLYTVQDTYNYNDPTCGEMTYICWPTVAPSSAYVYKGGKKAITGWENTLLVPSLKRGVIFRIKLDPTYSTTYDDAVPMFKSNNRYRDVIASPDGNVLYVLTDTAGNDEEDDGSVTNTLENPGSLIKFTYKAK
# Excerpt: (§1) The purity was greater than 95%.
# HI (Y367H-N452I GDH-B) = target: T2, HI (Y367H-N452I GDH-B) (Acinetobacter calcoaceticus, UniProt P13650, N452I/Y367H); test: SPR (BIAcore X) binding of immobilized synthesized peptides, HI as analyte; conditions: peptide on CM5 chip (amine coupling), analyte 5 nM to 90 μM in 10 mM MOPS–NaOH pH 7.0, less than 20 RU at any analyte concentration = not binding, read-out: Kd against HI
# T2 construct: made in house; host or cells: Escherichia coli PP2418 / pTrc99A
# T2 sequence (P13650 25-478 Y367H/N452I): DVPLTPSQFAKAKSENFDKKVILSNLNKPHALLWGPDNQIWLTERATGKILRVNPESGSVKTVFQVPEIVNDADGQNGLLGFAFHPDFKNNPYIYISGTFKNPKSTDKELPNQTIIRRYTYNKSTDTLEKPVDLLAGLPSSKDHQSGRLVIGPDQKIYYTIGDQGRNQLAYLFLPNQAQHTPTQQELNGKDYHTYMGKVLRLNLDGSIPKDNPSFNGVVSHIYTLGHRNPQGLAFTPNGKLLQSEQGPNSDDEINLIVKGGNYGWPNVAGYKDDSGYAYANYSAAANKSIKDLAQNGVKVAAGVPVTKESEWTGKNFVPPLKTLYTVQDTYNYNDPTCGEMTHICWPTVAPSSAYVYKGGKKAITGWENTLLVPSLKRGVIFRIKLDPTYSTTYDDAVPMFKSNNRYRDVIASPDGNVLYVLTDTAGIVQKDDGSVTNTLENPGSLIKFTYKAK
# Excerpt: as §1
# [2] = target: T3, wild-type water-soluble pyrroloquinoline quinone (PQQ) glucose dehydrogenase (GDH-B) (UniProt P13650 25-478); test: enzyme inhibition assay; residual activity of 0.7 nM GDH-B for 50 mM D-glucose after 1 h incubation with various concentrations of peptide; DCIP/PMS, 10 mM MOPS-NaOH pH 7.0, PQQ, CaCl2; non-competitive dominant mixed inhibition; conditions: both partners purified
# T3 construct: water-soluble PQQ-dependent glucose dehydrogenase (GDH-B); structural gene in pTrc99A; Produced as apo-form in E. coli; PQQ and Ca2+ are added for activity assays; also called wild-type GDH-B; W.T; source: E. coli PP2418 (pTrc99A), purified as previously described (cation exchange chromatography)
# T3 sequence (looked up): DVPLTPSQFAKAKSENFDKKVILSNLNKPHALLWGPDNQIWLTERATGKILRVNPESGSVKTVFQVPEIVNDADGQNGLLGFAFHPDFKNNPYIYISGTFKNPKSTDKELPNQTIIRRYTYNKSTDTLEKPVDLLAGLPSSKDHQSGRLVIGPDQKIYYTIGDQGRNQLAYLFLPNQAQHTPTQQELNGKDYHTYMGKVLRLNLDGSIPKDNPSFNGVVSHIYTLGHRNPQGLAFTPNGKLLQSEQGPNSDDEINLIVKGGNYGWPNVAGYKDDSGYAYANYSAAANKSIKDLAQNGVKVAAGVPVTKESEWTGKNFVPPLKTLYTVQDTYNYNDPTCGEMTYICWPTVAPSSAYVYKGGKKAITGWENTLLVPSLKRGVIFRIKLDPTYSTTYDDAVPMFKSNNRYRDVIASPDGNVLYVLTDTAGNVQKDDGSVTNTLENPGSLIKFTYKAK
# [3] = target: T3, wild-type water-soluble …; test: SPR; BIAcore X; peptide immobilised on CM5 chip by amine coupling (320-2130 RU); analytes GDH-B, DEE-His or HI, five concentrations (5 nM to 90 uM) in 10 mM MOPS-NaOH pH 7.0, 10 uL/min to plateau; Kd from plateau RU against concentration (Scatchard); less than 20 RU at any concentration judged as not binding; conditions: both partners purified
# [4] = decrease vs wild-type GDH-B, ref [36]; cited from earlier work
# Excerpt: We, and other research groups, have been engaged in constructing of variety of mutant GDH-Bs in order to develop an ideal enzyme for glucose monitoring. For example, we have reported the Asn452Thr GDH-B mutant, showing approximately 50% lower activity for lactose and maltose than the wild-type GDH-B [36].
# [5] = Kinetic parameters of GDH-B and mutant enzymes; type: biochemical
# Method: GDH-B activity was measured using 0.06 mM 2,6-dichlorophenolindophenol (DCIP) and 0.6 mM phenazine methosulfate (PMS) following 30 min pre-incubation in 10 mM MOPS–NaOH buffer (pH 7.0) containing 1 μM PQQ and 1 mM CaCl2 at room temperature (25 °C). The enzyme activity was determined by measuring the decrease in absorbance of DCIP at 600 nm. For the inhibition assay, the residual activity of 0.7 nM GDH-B for 50 mM D-glucose was measured following 1 h incubation with various concentrations of each peptide. GDH-B activity in the absence of peptide was defined as 100%.
# Y367H-N452I GDH-B (HI) = target: T4, Y367H-N452I GDH-B (HI) (UniProt P13650 25-478, Y367H | N452I); test: SPR; conditions: both partners purified
# T4 construct: also called antagonistic template; source: E. coli PP2418 (pTrc99A), soluble, purified (Resource S cation exchange, Superdex 200 size exclusion chromatography)
# T4 sequence: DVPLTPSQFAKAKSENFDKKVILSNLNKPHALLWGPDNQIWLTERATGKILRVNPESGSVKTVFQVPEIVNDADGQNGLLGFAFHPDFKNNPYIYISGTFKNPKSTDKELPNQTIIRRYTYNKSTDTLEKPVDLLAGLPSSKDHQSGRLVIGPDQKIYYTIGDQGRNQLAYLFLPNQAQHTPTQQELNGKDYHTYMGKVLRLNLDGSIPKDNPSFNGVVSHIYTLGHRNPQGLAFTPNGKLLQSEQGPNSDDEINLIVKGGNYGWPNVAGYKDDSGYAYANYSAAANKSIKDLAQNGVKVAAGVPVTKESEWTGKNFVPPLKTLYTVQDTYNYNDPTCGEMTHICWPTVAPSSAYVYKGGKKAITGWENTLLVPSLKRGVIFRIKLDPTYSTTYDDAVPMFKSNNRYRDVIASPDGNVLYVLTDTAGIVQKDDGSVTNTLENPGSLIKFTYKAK
# [6] = DCIP/PMS assay, 10 mM MOPS–NaOH pH 7.0, 1 μM PQQ, 1 mM CaCl2, 25 °C
molecule,measurement,setting,value
NSTHHHHFATIW [DEE4–10],Kd,[1],> 90 µM
same,Kd,HI (Y367H-N452I GDH-B),> 90 µM
LGDSSNSQVSLN [DEE4–5],Kd,[1],> 90 µM
same,Kd,HI (Y367H-N452I GDH-B),> 90 µM
SDLSPIQSLSAI [DEE4–6],Kd,[1],> 90 µM
ELITNSETTQWF [HI3-2],Kd,[1],> 90 µM
"NSTHHHHFATIW (12-mer selected from the Ph.D.-12 phage display peptide library; Immobilised on a CM5 chip by amine coupling in the SPR; also called HI4–6; source: synthetic peptide, bought: Sigma Aldrich Japan) [DEE4–10 synthesized 12-mer peptide]",Ki,[2],7.4 µM
same,Kd,[3],0.7 µM
"Asn452Thr GDH-B mutant: previously reported Asn452Thr GDH-B mutant, ref [36] (protein, UniProt P13650 25-478, looked up, variant N452T) Quinoprotein glucose …: DVPLTPSQFAKAKSENFDKKVILSNLNKPHALLWGPDNQIWLTERATGKILRVNPESGSVKTVFQVPEIVNDADGQNGLLGFAFHPDFKNNPYIYISGTFKNPKSTDKELPNQTIIRRYTYNKSTDTLEKPVDLLAGLPSSKDHQSGRLVIGPDQKIYYTIGDQGRNQLAYLFLPNQAQHTPTQQELNGKDYHTYMGKVLRLNLDGSIPKDNPSFNGVVSHIYTLGHRNPQGLAFTPNGKLLQSEQGPNSDDEINLIVKGGNYGWPNVAGYKDDSGYAYANYSAAANKSIKDLAQNGVKVAAGVPVTKESEWTGKNFVPPLKTLYTVQDTYNYNDPTCGEMTYICWPTVAPSSAYVYKGGKKAITGWENTLLVPSLKRGVIFRIKLDPTYSTTYDDAVPMFKSNNRYRDVIASPDGNVLYVLTDTAGTVQKDDGSVTNTLENPGSLIKFTYKAK",lower activity for lactose than the wild-type,[4],approximately 50%
same,lower activity for maltose than the wild-type,[4],approximately 50%
"GDH-B: water-soluble pyrroloquinoline quinone (PQQ) dependent glucose dehydrogenase, wild type (protein) DVPLTPSQFAKAKSENFDKKVILSNLNKPHALLWGPDNQIWLTERATGKILRVNPESGSVKTVFQVPEIVNDADGQNGLLGFAFHPDFKNNPYIYISGTFKNPKSTDKELPNQTIIRRYTYNKSTDTLEKPVDLLAGLPSSKDHQSGRLVIGPDQKIYYTIGDQGRNQLAYLFLPNQAQHTPTQQELNGKDYHTYMGKVLRLNLDGSIPKDNPSFNGVVSHIYTLGHRNPQGLAFTPNGKLLQSEQGPNSDDEINLIVKGGNYGWPNVAGYKDDSGYAYANYSAAANKSIKDLAQNGVKVAAGVPVTKESEWTGKNFVPPLKTLYTVQDTYNYNDPTCGEMTYICWPTVAPSSAYVYKGGKKAITGWENTLLVPSLKRGVIFRIKLDPTYSTTYDDAVPMFKSNNRYRDVIASPDGNVLYVLTDTAGNVQKDDGSVTNTLENPGSLIKFTYKAK",Km,[5]; [6],25 mM
same,Vmax,[5]; [6],5200 U/mg protein
"GB-His: GDH-B fused with 6-His tag to the C-terminal (protein, left off: His6, C-terminal, kept, GDH-B fused with 6-His tag to the C-terminal) DVPLTPSQFAKAKSENFDKKVILSNLNKPHALLWGPDNQIWLTERATGKILRVNPESGSVKTVFQVPEIVNDADGQNGLLGFAFHPDFKNNPYIYISGTFKNPKSTDKELPNQTIIRRYTYNKSTDTLEKPVDLLAGLPSSKDHQSGRLVIGPDQKIYYTIGDQGRNQLAYLFLPNQAQHTPTQQELNGKDYHTYMGKVLRLNLDGSIPKDNPSFNGVVSHIYTLGHRNPQGLAFTPNGKLLQSEQGPNSDDEINLIVKGGNYGWPNVAGYKDDSGYAYANYSAAANKSIKDLAQNGVKVAAGVPVTKESEWTGKNFVPPLKTLYTVQDTYNYNDPTCGEMTYICWPTVAPSSAYVYKGGKKAITGWENTLLVPSLKRGVIFRIKLDPTYSTTYDDAVPMFKSNNRYRDVIASPDGNVLYVLTDTAGNVQKDDGSVTNTLENPGSLIKFTYKAK",Km,[5]; pH 7,24 mM
same,Vmax,[5]; pH 7,3950 U/mg protein
"HI: GDH-B mutant Y367H-N452I, antagonistic template (protein) DVPLTPSQFAKAKSENFDKKVILSNLNKPHALLWGPDNQIWLTERATGKILRVNPESGSVKTVFQVPEIVNDADGQNGLLGFAFHPDFKNNPYIYISGTFKNPKSTDKELPNQTIIRRYTYNKSTDTLEKPVDLLAGLPSSKDHQSGRLVIGPDQKIYYTIGDQGRNQLAYLFLPNQAQHTPTQQELNGKDYHTYMGKVLRLNLDGSIPKDNPSFNGVVSHIYTLGHRNPQGLAFTPNGKLLQSEQGPNSDDEINLIVKGGNYGWPNVAGYKDDSGYAYANYSAAANKSIKDLAQNGVKVAAGVPVTKESEWTGKNFVPPLKTLYTVQDTYNYNDPTCGEMTHICWPTVAPSSAYVYKGGKKAITGWENTLLVPSLKRGVIFRIKLDPTYSTTYDDAVPMFKSNNRYRDVIASPDGNVLYVLTDTAGIVQKDDGSVTNTLENPGSLIKFTYKAK",Km,[5]; [6],18 mM
same,Vmax,[5]; [6],170 U/mg protein
"LGDSSNSQVSLN (12-mer selected from the Ph.D.-12 phage display peptide library; Immobilised on a CM5 chip by amine coupling in the SPR; also called DEE3-4; source: synthetic peptide, bought: Sigma Aldrich Japan) [DEE4–5 synthesized 12-mer peptide]",Kd,[3],13 µM
"SDLSPIQSLSAI (12-mer selected from the Ph.D.-12 phage display peptide library; Immobilised on a CM5 chip by amine coupling in the SPR; also called DEE4–9; source: synthetic peptide, bought: Sigma Aldrich Japan) [DEE4–6 synthesized 12-mer peptide]",Kd,[3],2.5 µM
same,Kd,Y367H-N452I GDH-B (HI),230 µM
"ELITNSETTQWF (12-mer selected from the Ph.D.-12 phage display peptide library; Immobilised on a CM5 chip by amine coupling in the SPR; source: synthetic peptide, bought: Sigma Aldrich Japan) [HI3-2 synthesized 12-mer peptide]",Kd,[3],2.5 µM
same,Kd,Y367H-N452I GDH-B (HI),88 µM
